Measurements reported in the supplement of paper PMC10065799, “High-throughput profiling of sequence recognition by tyrosine kinases and SH2 domains using bacterial peptide display” (eLife, 2023).

Key:
MERTK = MERTK (UniProt Q12866); assay: phosphorylation enrichment, bacterial display (enrichment ratio); higher = better substrate or ligand; peptides without Tyr show the background
Fyn = Fyn (UniProt P06241); assay: as above
Fer (mouse) = assay: as above
EPHB1 = EPHB1 (UniProt P54762); assay: as above
Hck = Hck (UniProt P08631); assay: as above
Jak2 = Jak2 (UniProt O60674); assay: as above
c-Abl (mouse) = assay: as above
c-Src = assay: as above
FGFR1 = FGFR1 (UniProt P11362); assay: as above
Fes = Fes (UniProt P07332); assay: as above
AncSZ = assay: as above
FGFR3 = FGFR3 (UniProt P22607); assay: as above
EPHB2 = EPHB2 (UniProt P29323); assay: as above
Grb2 SH2 = Grb2 SH2 (UniProt P62993); assay: SH2 binding enrichment of the phosphorylated peptide, bacterial display (enrichment ratio); higher = better substrate or ligand; peptides without Tyr show the background
SHP2-C SH2 = assay: as above
c-Src SH2 = assay: as above
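Wherever SH2 binding enrichment of the phosphorylated peptide, bacterial display is given: peptide library displayed on the E. coli surface as eCPX fusions, selected cells deep-sequenced, score is each peptide's frequency after selection divided by its frequency in the input.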
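Wherever phosphorylation enrichment, bacterial display is given: 11-residue human phosphosite peptides and single-mutation variants displayed on the E. coli surface, counted by deep sequencing, each peptide's frequency after selection divided by its frequency in the unselected input library; frequency after pTyr selection over input frequency; kinase dosed for 20-30% of maximal phosphorylation in three min.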

Sequence of Fyn (P06241 whole entry, looked up): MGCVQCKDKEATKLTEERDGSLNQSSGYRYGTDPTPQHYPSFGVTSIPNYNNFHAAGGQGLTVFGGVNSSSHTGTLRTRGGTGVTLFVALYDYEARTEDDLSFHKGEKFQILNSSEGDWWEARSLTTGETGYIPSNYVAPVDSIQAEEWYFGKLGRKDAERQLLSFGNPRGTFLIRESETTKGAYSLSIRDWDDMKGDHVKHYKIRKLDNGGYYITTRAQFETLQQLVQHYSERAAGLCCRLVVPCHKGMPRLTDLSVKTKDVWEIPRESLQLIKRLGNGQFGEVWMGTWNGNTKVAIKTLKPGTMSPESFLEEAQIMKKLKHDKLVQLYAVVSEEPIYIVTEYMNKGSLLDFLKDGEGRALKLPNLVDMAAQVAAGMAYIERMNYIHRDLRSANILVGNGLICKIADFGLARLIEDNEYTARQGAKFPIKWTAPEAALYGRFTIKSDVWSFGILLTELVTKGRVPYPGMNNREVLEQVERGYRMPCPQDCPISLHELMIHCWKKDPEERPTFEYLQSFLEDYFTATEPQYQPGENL
Sequence of FGFR3 (P22607 whole entry, looked up): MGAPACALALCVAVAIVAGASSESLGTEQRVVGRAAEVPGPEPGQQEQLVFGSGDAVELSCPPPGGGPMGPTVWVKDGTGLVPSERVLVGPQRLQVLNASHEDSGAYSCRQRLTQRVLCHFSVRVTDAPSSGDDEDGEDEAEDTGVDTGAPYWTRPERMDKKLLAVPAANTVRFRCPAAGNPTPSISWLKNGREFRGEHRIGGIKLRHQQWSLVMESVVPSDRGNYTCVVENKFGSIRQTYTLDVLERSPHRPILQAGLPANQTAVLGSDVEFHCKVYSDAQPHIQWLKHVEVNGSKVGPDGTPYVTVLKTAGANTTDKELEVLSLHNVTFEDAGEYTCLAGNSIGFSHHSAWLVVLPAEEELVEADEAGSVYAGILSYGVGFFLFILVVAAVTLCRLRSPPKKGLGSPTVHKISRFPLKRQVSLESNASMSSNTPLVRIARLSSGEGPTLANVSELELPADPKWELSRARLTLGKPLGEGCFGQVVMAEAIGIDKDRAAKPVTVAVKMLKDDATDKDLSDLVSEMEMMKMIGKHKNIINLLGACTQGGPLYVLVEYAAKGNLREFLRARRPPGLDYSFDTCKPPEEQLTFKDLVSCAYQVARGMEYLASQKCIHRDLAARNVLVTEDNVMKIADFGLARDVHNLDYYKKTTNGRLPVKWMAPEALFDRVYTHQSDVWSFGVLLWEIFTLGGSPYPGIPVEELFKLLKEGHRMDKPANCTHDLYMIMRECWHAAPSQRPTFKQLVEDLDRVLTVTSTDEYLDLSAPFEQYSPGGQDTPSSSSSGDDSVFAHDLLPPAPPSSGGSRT
Sequence of Hck (P08631 whole entry, looked up): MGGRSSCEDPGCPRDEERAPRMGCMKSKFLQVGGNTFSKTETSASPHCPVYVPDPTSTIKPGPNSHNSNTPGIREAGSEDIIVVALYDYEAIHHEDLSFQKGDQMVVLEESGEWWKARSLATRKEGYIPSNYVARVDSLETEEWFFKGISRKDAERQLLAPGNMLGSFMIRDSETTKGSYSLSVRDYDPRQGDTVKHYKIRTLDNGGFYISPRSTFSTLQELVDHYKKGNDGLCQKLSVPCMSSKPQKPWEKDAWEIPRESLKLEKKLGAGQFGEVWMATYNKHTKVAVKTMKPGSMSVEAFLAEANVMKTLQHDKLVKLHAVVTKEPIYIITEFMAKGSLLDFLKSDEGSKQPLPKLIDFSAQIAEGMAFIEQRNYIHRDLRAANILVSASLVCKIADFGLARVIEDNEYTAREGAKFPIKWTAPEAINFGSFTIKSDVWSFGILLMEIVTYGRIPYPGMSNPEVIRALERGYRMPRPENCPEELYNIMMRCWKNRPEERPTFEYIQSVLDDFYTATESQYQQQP
Sequence of Fes (P07332 whole entry, looked up): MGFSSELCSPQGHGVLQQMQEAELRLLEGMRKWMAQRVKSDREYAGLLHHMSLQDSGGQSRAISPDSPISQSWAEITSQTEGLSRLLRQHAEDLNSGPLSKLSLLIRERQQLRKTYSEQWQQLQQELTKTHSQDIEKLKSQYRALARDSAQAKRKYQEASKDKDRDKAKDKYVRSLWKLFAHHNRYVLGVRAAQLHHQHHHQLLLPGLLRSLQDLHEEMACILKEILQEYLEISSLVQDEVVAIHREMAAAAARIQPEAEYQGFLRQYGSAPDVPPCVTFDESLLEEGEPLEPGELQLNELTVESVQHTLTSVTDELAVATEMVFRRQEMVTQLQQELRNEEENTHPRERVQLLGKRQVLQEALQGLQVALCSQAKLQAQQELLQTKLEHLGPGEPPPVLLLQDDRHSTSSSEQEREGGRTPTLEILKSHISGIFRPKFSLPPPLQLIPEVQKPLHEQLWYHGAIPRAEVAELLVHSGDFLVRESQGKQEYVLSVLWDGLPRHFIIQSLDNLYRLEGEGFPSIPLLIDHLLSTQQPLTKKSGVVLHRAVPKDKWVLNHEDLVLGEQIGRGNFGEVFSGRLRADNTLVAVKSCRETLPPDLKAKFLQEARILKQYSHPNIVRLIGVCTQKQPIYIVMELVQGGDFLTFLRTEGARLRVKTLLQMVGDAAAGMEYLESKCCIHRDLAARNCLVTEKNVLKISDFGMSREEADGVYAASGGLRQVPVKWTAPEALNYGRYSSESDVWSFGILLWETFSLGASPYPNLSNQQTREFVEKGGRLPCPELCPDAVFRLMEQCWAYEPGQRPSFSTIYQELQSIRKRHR
Sequence of MERTK (Q12866 whole entry, looked up): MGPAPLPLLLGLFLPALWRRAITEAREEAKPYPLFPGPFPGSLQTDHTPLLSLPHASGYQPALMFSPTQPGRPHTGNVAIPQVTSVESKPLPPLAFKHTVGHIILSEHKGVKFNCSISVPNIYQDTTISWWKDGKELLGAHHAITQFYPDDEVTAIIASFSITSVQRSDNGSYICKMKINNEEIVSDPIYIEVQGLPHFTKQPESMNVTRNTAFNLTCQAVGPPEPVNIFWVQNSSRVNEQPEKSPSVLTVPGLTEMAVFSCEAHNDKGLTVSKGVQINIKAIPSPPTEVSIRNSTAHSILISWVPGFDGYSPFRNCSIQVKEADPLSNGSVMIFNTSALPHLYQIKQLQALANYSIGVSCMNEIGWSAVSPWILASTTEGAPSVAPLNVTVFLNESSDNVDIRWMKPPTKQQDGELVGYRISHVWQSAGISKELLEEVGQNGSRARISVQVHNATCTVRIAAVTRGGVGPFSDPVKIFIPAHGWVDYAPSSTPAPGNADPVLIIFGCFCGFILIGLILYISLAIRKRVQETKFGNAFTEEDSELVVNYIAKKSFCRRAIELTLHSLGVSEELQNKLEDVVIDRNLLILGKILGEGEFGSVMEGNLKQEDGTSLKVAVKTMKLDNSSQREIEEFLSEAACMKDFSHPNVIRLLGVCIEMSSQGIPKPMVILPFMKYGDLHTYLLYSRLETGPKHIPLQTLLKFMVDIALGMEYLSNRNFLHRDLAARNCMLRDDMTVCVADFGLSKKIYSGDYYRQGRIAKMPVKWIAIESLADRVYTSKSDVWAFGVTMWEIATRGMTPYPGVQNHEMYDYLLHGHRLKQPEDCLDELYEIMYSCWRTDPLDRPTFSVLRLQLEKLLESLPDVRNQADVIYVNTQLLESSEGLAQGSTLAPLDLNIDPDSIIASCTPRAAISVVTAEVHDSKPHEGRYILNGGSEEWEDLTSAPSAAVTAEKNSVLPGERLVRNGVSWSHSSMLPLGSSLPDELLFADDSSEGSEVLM
Sequence of EPHB2 (P29323 whole entry, looked up): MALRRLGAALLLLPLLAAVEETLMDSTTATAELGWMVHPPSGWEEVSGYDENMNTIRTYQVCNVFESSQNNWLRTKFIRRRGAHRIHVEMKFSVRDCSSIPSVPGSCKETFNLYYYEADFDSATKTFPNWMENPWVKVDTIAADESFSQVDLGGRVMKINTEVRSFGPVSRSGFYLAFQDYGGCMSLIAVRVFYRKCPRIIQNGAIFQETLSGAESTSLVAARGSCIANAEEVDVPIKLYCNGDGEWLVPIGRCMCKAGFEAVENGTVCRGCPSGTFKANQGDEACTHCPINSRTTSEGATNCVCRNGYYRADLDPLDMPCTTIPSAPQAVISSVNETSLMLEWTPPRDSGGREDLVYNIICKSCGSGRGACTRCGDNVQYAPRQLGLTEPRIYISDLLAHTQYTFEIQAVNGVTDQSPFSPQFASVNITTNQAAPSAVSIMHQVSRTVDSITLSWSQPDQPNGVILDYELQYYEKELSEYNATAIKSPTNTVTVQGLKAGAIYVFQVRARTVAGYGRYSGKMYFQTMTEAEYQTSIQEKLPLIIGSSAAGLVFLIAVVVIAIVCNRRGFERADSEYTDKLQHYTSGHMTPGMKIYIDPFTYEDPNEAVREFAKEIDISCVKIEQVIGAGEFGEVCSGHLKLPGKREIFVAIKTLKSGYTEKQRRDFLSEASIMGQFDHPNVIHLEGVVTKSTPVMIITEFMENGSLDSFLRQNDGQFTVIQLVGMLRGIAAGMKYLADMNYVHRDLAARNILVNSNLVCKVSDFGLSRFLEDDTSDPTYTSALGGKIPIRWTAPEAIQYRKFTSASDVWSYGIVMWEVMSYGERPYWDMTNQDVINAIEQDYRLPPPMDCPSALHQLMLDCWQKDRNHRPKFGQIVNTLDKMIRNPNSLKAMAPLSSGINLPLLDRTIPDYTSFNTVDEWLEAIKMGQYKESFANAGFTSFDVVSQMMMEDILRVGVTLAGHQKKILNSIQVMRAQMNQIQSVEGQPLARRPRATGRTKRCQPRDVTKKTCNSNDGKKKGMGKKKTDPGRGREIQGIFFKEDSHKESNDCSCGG

Sequence | SH2 binding enrichment (Grb2 SH2) | SH2 binding enrichment (SHP2-C SH2) | SH2 binding enrichment (c-Src SH2) | phosphorylation enrichment (MERTK) | phosphorylation enrichment (Fyn) | phosphorylation enrichment (Fer (mouse)) | phosphorylation enrichment (EPHB1) | phosphorylation enrichment (Hck) | phosphorylation enrichment (Jak2) | phosphorylation enrichment (c-Abl (mouse)) | phosphorylation enrichment (c-Src) | phosphorylation enrichment (FGFR1) | phosphorylation enrichment (Fes) | phosphorylation enrichment (AncSZ) | phosphorylation enrichment (FGFR3) | phosphorylation enrichment (EPHB2)
TSFSGYRFHRH [NKAPL_Y94_YF] | 1.28 | 1.01 | 0.942 | 0.452 | 0.472 | 0.384 | 0.429 | 0.515 | 0.546 | 0.601 | 0.579 | 0.44 | 0.788 | 0.558 | 0.677 | 0.471
TSSAGYRRTPS [ABI1_Y333_G331A] | 1.03 | 0.405 | 0.45 | 0.392 | 0.484 | 0.36 | 0.42 | 0.446 | 0.476 | 0.576 | 0.444 | 0.499 | 0.594 | 0.565 | 0.491 | 0.497
TTKGSYSLSVR [HCK_Y180] | 0.876 | 0.664 | 0.51 | 0.455 | 0.461 | 0.388 | 0.448 | 0.433 | 1.04 | 0.624 | 0.568 | 0.558 | 0.727 | 0.674 | 0.582 | 0.43
TVHPGYGFLSE [PCCA_Y143_A138T] | 0.941 | 0.962 | 0.433 | 0.396 | 0.384 | 0.425 | 0.455 | 0.488 | 0.676 | 0.529 | 0.566 | 0.393 | 0.747 | 0.717 | 0.478 | 0.467
VAVVQYSGMGQ [COL6A1_Y878_T881M] | 0.763 | 0.927 | 0.603 | 0.524 | 0.439 | 0.407 | 0.382 | 0.416 | 0.612 | 0.62 | 0.451 | 0.44 | 0.757 | 0.554 | 0.506 | 0.363
VDASFCGGRGV [ANTXR2_Y381_Y381C_YF] | 0.728 | 0.559 | 0.389 | 0.396 | 0.405 | 0.49 | 0.514 | 0.539 | 0.894 | 0.744 | 0.413 | 0.531 | 1.11 | 0.818 | 0.629 | 0.495
VDSGVYAVPPP [BCAR1_Y410] | 0.863 | 0.624 | 0.434 | 9.97 | 8.7 | 5.46 | 7.54 | 8.02 | 0.709 | 20.9 | 4.94 | 1.2 | 0.795 | 2.04 | 1.01 | 19.6
VFSTDYFRVGG [NTRK2_Y706_YF] | 0.761 | 0.697 | 0.556 | 0.587 | 0.464 | 0.499 | 0.826 | 0.459 | 8.12 | 0.734 | 0.757 | 6.21 | 0.859 | 1.69 | 3.75 | 0.709
VGTKRYMAPKV [ACVRL1_Y375_E379K] | 1.19 | 1.44 | 0.632 | 0.424 | 0.301 | 0.443 | 0.274 | 0.327 | 0.482 | 0.625 | 0.304 | 0.391 | 0.456 | 0.377 | 0.372 | 0.282
VHFLVYHHHHH [CACNA1H_Y519_H516Y_YF] | 1.21 | 0.755 | 0.791 | 0.388 | 0.527 | 0.493 | 0.555 | 0.416 | 1.11 | 0.863 | 0.453 | 0.437 | 1.11 | 0.88 | 0.834 | 0.661
VHNLDYFKKTT [FGFR3_Y647_YF] | 0.782 | 0.678 | 0.406 | 0.505 | 0.471 | 0.428 | 0.512 | 0.46 | 0.857 | 0.573 | 0.523 | 0.437 | 0.91 | 0.806 | 0.617 | 0.425
VHNLNYFKKTT [FGFR3_Y647_D646N_YF] | 0.987 | 0.678 | 0.377 | 0.311 | 0.302 | 0.346 | 0.36 | 0.347 | 0.467 | 0.442 | 0.425 | 0.355 | 0.607 | 0.402 | 0.369 | 0.314
VLTSKYPGGGG [HBA1_Y141_R142P] | 0.737 | 0.612 | 0.366 | 0.392 | 0.344 | 0.303 | 0.229 | 0.296 | 0.441 | 0.342 | 0.276 | 0.28 | 0.443 | 0.349 | 0.342 | 0.374
VPLLEYYWDIF [CDAN1_Y712_R714W] | 1.54 | 1.08 | 1.12 | 1.54 | 0.879 | 0.521 | 2.27 | 0.813 | 2.12 | 0.923 | 1.67 | 7.97 | 1.46 | 1.43 | 6.87 | 1.54
VSFDEYRFRSV [CFTR_Y515_YF] | 0.776 | 0.55 | 0.477 | 0.6 | 0.489 | 0.567 | 0.519 | 0.574 | 1.14 | 0.862 | 0.614 | 0.515 | 1.22 | 0.972 | 0.699 | 0.591
VSFGEYRFRSV [CFTR_Y515_D513G_YF] | 0.792 | 0.9 | 0.528 | 0.395 | 0.356 | 0.402 | 0.431 | 0.469 | 0.574 | 0.672 | 0.489 | 0.523 | 0.801 | 0.668 | 0.513 | 0.443
VSYGEYRYRSV [CFTR_Y515_D513G] | 0.529 | 0.369 | 0.451 | 0.363 | 5.66 | 0.442 | 0.452 | 2.04 | 0.612 | 0.605 | 3.22 | 0.505 | 0.824 | 0.688 | 0.469 | 0.416
VTGWGYRKLRE [F11_Y521_D526E] | 0.63 | 0.375 | 0.584 | 0.546 | 0.495 | 0.508 | 0.415 | 0.407 | 0.579 | 0.588 | 0.578 | 0.476 | 0.763 | 0.907 | 0.631 | 0.455
VTNHIYTWVDP [DFNB31_Y234] | 1.14 | 0.956 | 1.05 | 7.06 | 4.26 | 10.2 | 2.73 | 3.06 | 0.87 | 0.711 | 3.2 | 3.77 | 2 | 2.57 | 3.33 | 1.63
VTQEQYELYCE [CBL_Y368] | 1.04 | 0.577 | 0.625 | 0.571 | 0.684 | 0.887 | 0.814 | 0.989 | 1.17 | 0.883 | 0.892 | 0.622 | 1.32 | 1.75 | 0.894 | 0.71

Now from value to sequence, other results behind:

SH2 binding enrichment (Grb2 SH2) | SH2 binding enrichment (SHP2-C SH2) | SH2 binding enrichment (c-Src SH2) | Sequence | phosphorylation enrichment (MERTK) | phosphorylation enrichment (Fyn) | phosphorylation enrichment (Fer (mouse)) | phosphorylation enrichment (EPHB1) | phosphorylation enrichment (Hck) | phosphorylation enrichment (Jak2) | phosphorylation enrichment (c-Abl (mouse)) | phosphorylation enrichment (c-Src) | phosphorylation enrichment (FGFR1) | phosphorylation enrichment (Fes) | phosphorylation enrichment (AncSZ) | phosphorylation enrichment (FGFR3) | phosphorylation enrichment (EPHB2)
0.768 | 0.558 | 0.402 | TTKGAYSLSVR [YES1_Y194_I198V] | 0.364 | 0.317 | 0.403 | 0.404 | 0.483 | 0.511 | 0.517 | 0.376 | 0.405 | 0.73 | 0.894 | 0.548 | 0.5
1.17 | 0.58 | 0.567 | TVHCDYLNISH [TAF1L_Y1385_P1389S] | 0.373 | 0.451 | 0.546 | 1.55 | 0.562 | 1.29 | 0.663 | 0.588 | 2.38 | 1.04 | 1.1 | 1.69 | 0.634
0.775 | 0.651 | 0.415 | TVQVAYFTVMM [SPATA17_Y83_M86V_YF] | 0.486 | 0.595 | 0.842 | 0.838 | 0.61 | 1.3 | 0.921 | 0.666 | 0.729 | 1.55 | 1.44 | 1.09 | 0.758
1.06 | 10.1 | 9.41 | TVSQPYSFIEF [SEC22B_Y110_R108Q] | 8.32 | 4.91 | 19.4 | 0.878 | 3.08 | 0.933 | 0.805 | 5.66 | 11.5 | 3.48 | 1.29 | 8.47 | 0.54
0.744 | 1.03 | 0.81 | TVSTRYTQPQP [SARG_Y259] | 0.394 | 0.442 | 0.471 | 0.386 | 0.37 | 0.605 | 0.576 | 0.364 | 0.446 | 0.561 | 0.616 | 0.39 | 0.427
1.11 | 0.883 | 0.943 | TWNPKYTLRSH [STRN3_Y474] | 0.409 | 0.426 | 0.378 | 0.399 | 0.492 | 0.524 | 0.473 | 0.348 | 0.433 | 0.74 | 0.614 | 0.54 | 0.468
1.28 | 1.16 | 1.2 | TWSPKYTLRSH [STRN3_Y474_N471S] | 0.426 | 0.445 | 0.389 | 0.593 | 0.419 | 0.728 | 0.52 | 0.348 | 0.353 | 0.87 | 0.735 | 0.529 | 0.477
0.833 | 1 | 1.46 | VFLGAYDHFLP [SLC22A5_Y486_R488H_YF] | 6.29 | 3.08 | 4.81 | 1.8 | 2.73 | 0.726 | 1.06 | 3.29 | 0.611 | 0.955 | 1.36 | 0.811 | 3.32
1.75 | 1.28 | 1.12 | VIVRMYDFHVL [RPF2_Y109_G106V_YF] | 1.87 | 0.555 | 4.04 | 1.33 | 0.488 | 0.901 | 0.885 | 0.473 | 0.462 | 1.01 | 1.08 | 0.597 | 1.55
1.21 | 1.56 | 1.56 | VQVAYYTMMMN [SPATA17_Y84] | 6.47 | 1.48 | 3.67 | 2.52 | 1.65 | 4.11 | 1.15 | 2.56 | 8.59 | 1.54 | 1.81 | 6.58 | 1.17
0.888 | 0.588 | 0.51 | VRTGIYHGGEP [PIK3CA_Y361] | 0.431 | 0.568 | 0.457 | 0.419 | 0.586 | 0.558 | 0.496 | 0.498 | 0.542 | 0.659 | 0.641 | 0.407 | 0.421
1.06 | 0.54 | 0.482 | VSSPKYGGDDE [TMCC2_Y473_S475G] | 0.416 | 0.535 | 0.451 | 0.437 | 0.429 | 0.631 | 0.517 | 0.424 | 0.477 | 0.903 | 0.96 | 0.573 | 0.379
0.702 | 0.657 | 1.31 | VVAHQYSFAPD [TNS3_Y601] | 0.414 | 0.542 | 0.401 | 0.521 | 0.515 | 0.529 | 0.504 | 0.481 | 0.74 | 0.736 | 0.684 | 0.727 | 0.353
